Measured values published in patent US20220251215A1 (Regeneron, published 2022).
Residue numbers refer to the chain shown, from its start.

B1: mAb24958N (antibody, human IgG4 S228P, kappa, V domains shown)
VH: QVQLQESGPGLVKPSQTLSLTCTVSGGSIISDGYYWSWIRQHPGKGLEWIGYVDYSGNTYYNPSLKSRIIMSVDTSKNQFSLKLTSVTAADTAVYFCVREGPLRDAFEIWGQGTMVTVSS
VL: DIQMTQSPSSLSASVGDRVTITCRTSQSISRYLNWYQQKPGKAPKLLIFAASSLQSGVPSRFSGSGSGADFTLTISSLQPEDFATYYCQQSYSTPPITFGQGTRLEIKR
B2: mAb28105P (antibody, human IgG4 S228P, kappa, V domains shown)
VH: EVQLVESGGGVVQPGGSLRLSCEASGFIFDDYAMHWVRQAPGKGLEWVSLISGDGDIIYYADSVKGRFTISRDNSKNSLYLQMNSLIIEDTALYYCAKDWVFGVVMTHYWYFGLDVWGQGTTVTVSS
VL: B1 VL with V15E, T25A, R31T, F49Y, A50G, A69T, R104K, L105V
B3: mAb28035P (antibody, human IgG4 S228P, kappa, V domains shown)
VH: QVQLVQSGAEVMKPGASVKVSCKVSGYTLSDLSMHWVRQAPGKGLEWMGGFDFEHGKTIYAQKFQGRVTMTEDTSTDTTYMELSSLRSEDTAVYYCAKVPNWGFFDYWGQGTLVTVSS
VL: not shown
B4: mAb29822P2 (antibody, human IgG4 S228P, kappa, V domains shown)
VH: EVQLVESGGGVVQPGGSLRLSCAVSGFTFDDYAMHWVRQAPGKGLEWVSLISGDGGSTHYADSVKGRFTISRDNSKNSLYLQMNSLRTGDTALYYCAKDMIFAVVITDYHYYGMDVWGQGTTVTVSS
VL: not shown
B5: mAb29814P (antibody, human IgG4 S228P, kappa, V domains shown)
VH: QVQLVESGGGVVQPGRSLRLSCVASGFTFSSYGMHWVRQAPGKGLEWVAVIWYVGSNKYYGDSVKGRFTISRDNSKNTLYLQMNSLRAEDTAVYYCARDLIADRPGYYYNGMDVWGQGTTVTVSS
VL: EIVMTQSPVTLFVSPGERATLSCRASQSVNTNLAWYQQQPGQAPRLLIHGASTRPTGVPARFSGSGSGTEFTLIISSLQSEDFAVYYCQQYNNWPPWTFGQGTKVEIKR
B6: mAb28113P (antibody, human IgG4 S228P, kappa, V domains shown)
VH: EVQLVESGGGVVQPGGSLRLSCAASGFTFDDYAMHWVRQAPGKGLEWVSLISGGGGGTYYSDSVKGRFTISRDTSKDSLYLQMNSLRTEDTALYYCAKDMVFGVVTPYYYFALDVWGQGTTVTVSS
VL: not shown
B7: mAb28037P2 (antibody, human IgG4 S228P, kappa, V domains shown)
VH: QVQLQESGPGLVKPSETLSLTCTVSGDSISVYYWTWIRQPPGKGLEWIGYVHYTGYTNYNPSLKSRVTMSVDTAKKQISLKVRSVTAADTAVYYCARTIPAAAHYYHGTDVWGPGTTVTVSS
VL: DIQMTQSPSSLSASVGDRVTITCQANQDIRKYLNWYQQKSGKAPTLLIYEASNLETGAPSTFSGSGSGTEFTFTISSLRPEDIATYYCQQYESLPLTFGGGTKVEIKR
B8: mAb28075P (antibody, human IgG4 S228P, kappa, V domains shown)
VH: EVQLVESGGGVVQPGGSLRLSCAASGFTFDDYAMHWVRQAPGKGLEWVSLISGDGDNTYYADSVKGRFTISRDNNKNSLYLQMNSLRTEDTAFYYCAKELIFGKVLHDFYYYVMDVWGQGTTVTVSS
VL: not shown
B9: mAb24956N (antibody, human IgG4 S228P, kappa, V domains shown)
VH: EVQLVESGGGVVQPGGSLRLSCAASGFTFDDYAMYWVRQAPGKGLEWVSLISGDGGSMYYADSVKGRFTISRDNSKNSLYLQMNSLRTEDTALYYCAKDMIFYAFWSGYGSSDYYYYVMDVWGQGTTVTVYS
VL: not shown
B10: mAb28042P (antibody, human IgG4 S228P, kappa, V domains shown)
VH: QLQLQESDPGLVKPSETLSLTCTVSGDSIRNSNYYWGWIRQPPGKGLEWIGSIYFSGRTYFNPSLKSRVTIPVDMSKNQFSLMLNSVTATDTAVYYCARHGGITAAGGFFDYWGQGTLVTVSS
VL: DIQMTQSPSSLSASVGDRVTITCQASQDISNYLNWYQQKPGKAPNVLIYDASNLETGVPSRFSGSGSGTDFTFTISSLQPEDFATYYCQQNDNLPLTFGGGTKVEIKR
B11: mAb24959N (antibody, human IgG4 S228P, kappa, V domains shown)
VH: QLQLLESGPGLVKPSETLSLICTVSGGSIRGSSYYWGWIRQPPEKGLEWIGSIYSSGSTYYNPSLKSRVTISADTSKNQFSLKLSSVTAADTAVYYCARHGGITAVQLEFDPWGQGTLVTVSS
VL: DIQMTQSPSSLSASVGDRVTITCQASQDISNYLKWYQQKPGKAPKILIHDASNLEIGVPSRFSGSGAGTDFIFTISSLQPEDIGTYYCQQYDNLPITFGQGTRLEIKR
B12: mAbm24955N (antibody, V domains shown)
VH: EVQLVESGGGVVQPGGSLRLSCVASGFTFDDYAMYWVRQVPGKDLEWVSLISGDGDITYYVDSVKGRFTVSRDNNKNSLYLQMKSLRVEDTALYYCAKDMIYYASWSGYGSSDYYYYVMDVWGQGTTVTVSS
VL: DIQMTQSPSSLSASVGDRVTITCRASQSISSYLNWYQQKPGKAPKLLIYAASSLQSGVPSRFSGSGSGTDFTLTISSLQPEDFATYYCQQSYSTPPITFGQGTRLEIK
notes: the prefix mAbm is not explained (perhaps a mouse constant region)

Each binder was assayed against T1, HLA-A2 on T2 cells pulsed with NY-ESO-1:157-165, wt peptide (C165) (human) (assay: flow cytometry, peptide-pulsed T2 cells).
T1 construct: also called T2 Pulsed NY-ESO-1_157-165

Row | EC50 | Binder
1 | 19 nM | B1
2 | 1.8 nM | B2
3 | 2.7 nM | B3
4 | 5.4 nM | B4
5 | 1.1 nM | B5
6 | 0.6 nM | B6
7 | 0.78 nM | B7
8 | 0.38 nM | B8
9 | 0.47 nM | B9
10 | 1.6 nM | B10
11 | 1.1 nM | B11

Each binder was assayed against T1, HLA-A2 on T2 cells pulsed with … (assay: flow cytometry, 10 ug/ml, pulsed T2 cells).

Row | ratio of MFI, pulsed to unpulsed | Binder
12 | 98.6 ratio | B1
13 | 126 ratio | B2
14 | 131 ratio | B3
15 | 36.7 ratio | B4
16 | 124 ratio | B5
17 | 115 ratio | B6
18 | 137 ratio | B7
19 | 58.8 ratio | B8
20 | 125 ratio | B9
21 | 134 ratio | B10
22 | 131 ratio | B11

The binders below were run against HLA-A2 on T2 cells pulsed with BCL9L: 1351-1359 peptide (human) (assay: flow cytometry, 10 ug/ml, pulsed T2 cells).

Row | ratio of MFI, pulsed to unpulsed | Binder
23 | 170 ratio | B3
24 | 0.8 ratio | B4
25 | 150 ratio | B5
26 | 1 ratio | B6
27 | 52.3 ratio | B7
28 | 1.5 ratio | B8
29 | 46.5 ratio | B10
30 | 80.7 ratio | B11

Each binder was assayed against HLA-A2 on T2 cells pulsed with GRID1: 7-15 peptide (human) (assay: flow cytometry, 10 ug/ml, pulsed T2 cells).

Row | ratio of MFI, pulsed to unpulsed | Binder
31 | 0.7 ratio | B1
32 | 0.7 ratio | B2
33 | 1.4 ratio | B3
34 | 0.7 ratio | B4
35 | 1.6 ratio | B5
36 | 0.9 ratio | B6
37 | 0.7 ratio | B7
38 | 1.4 ratio | B8
39 | 1 ratio | B9
40 | 17.4 ratio | B10
41 | 3.2 ratio | B11

What follows are binders tested against HLA-A2 on T2 cells pulsed with EARS2: 306-314 peptide (human) (assay: flow cytometry, 10 ug/ml, pulsed T2 cells).

Row | ratio of MFI, pulsed to unpulsed | Binder
42 | 0.6 ratio | B1
43 | 0.6 ratio | B2
44 | 0.6 ratio | B3
45 | 0.5 ratio | B4
46 | 0.6 ratio | B5
47 | 0.5 ratio | B6
48 | 0.6 ratio | B7
49 | 0.5 ratio | B8
50 | 0.6 ratio | B9
51 | 0.6 ratio | B10
52 | 0.6 ratio | B11

What follows are binders tested against HLA-A2 on T2 cells pulsed with ZDHHC1 (376-384) peptide (human) (assay: flow cytometry, 10 ug/ml, pulsed T2 cells).

Row | ratio of MFI, pulsed to unpulsed | Binder
53 | 0.5 ratio | B2
54 | 0.9 ratio | B3
55 | 0.6 ratio | B5
56 | 0.5 ratio | B7
57 | 0.5 ratio | B10
58 | 0.4 ratio | B11

These binders were tested against HLA-A2 on T2 cells pulsed with ITCH (807-815) peptide (human) (assay: flow cytometry, 10 ug/ml, pulsed T2 cells).

Row | ratio of MFI, pulsed to unpulsed | Binder
59 | 1 ratio | B1
60 | 1 ratio | B2
61 | 1 ratio | B3
62 | 0.8 ratio | B4
63 | 0.9 ratio | B5
64 | 0.9 ratio | B6
65 | 1.3 ratio | B7
66 | 1 ratio | B8
67 | 0.9 ratio | B9
68 | 0.7 ratio | B10
69 | 0.9 ratio | B11

The binders below were run against HLA-A2 on T2 cells pulsed with MAGEH1: 90-98 peptide (human) (assay: flow cytometry, 10 ug/ml, pulsed T2 cells).

Row | ratio of MFI, pulsed to unpulsed | Binder
70 | 0.5 ratio | B1
71 | 0.5 ratio | B2
72 | 0.4 ratio | B3
73 | 0.4 ratio | B5
74 | 0.4 ratio | B7
75 | 0.5 ratio | B8
76 | 0.4 ratio | B10
77 | 0.4 ratio | B11

What follows are binders tested against HLA-A2 on T2 cells pulsed with FBXL22: 4-12 peptide (human) (assay: flow cytometry, 10 ug/ml, pulsed T2 cells).

Row | ratio of MFI, pulsed to unpulsed | Binder
78 | 0.5 ratio | B1
79 | 0.5 ratio | B2
80 | 0.5 ratio | B3
81 | 0.5 ratio | B5
82 | 0.5 ratio | B6
83 | 0.5 ratio | B7
84 | 0.5 ratio | B8
85 | 0.5 ratio | B9
86 | 0.5 ratio | B10
87 | 0.5 ratio | B11

These binders were tested against HLA-A2 on T2 cells pulsed with URB1: 1853-1861 peptide (human) (assay: flow cytometry, 10 ug/ml, pulsed T2 cells).

Row | ratio of MFI, pulsed to unpulsed | Binder
88 | 0.6 ratio | B1
89 | 0.6 ratio | B2
90 | 0.5 ratio | B3
91 | 7.9 ratio | B5
92 | 0.6 ratio | B6
93 | 0.6 ratio | B7
94 | 0.5 ratio | B8
95 | 0.5 ratio | B9
96 | 0.5 ratio | B10
97 | 0.6 ratio | B11

The binders below were run against T2, monomeric HLA-A2:NY-ESO-1(156-165) (V at position 165) peptide complex, 2906 (assay: SPR, 25 C, antibody captured, monomeric complex injected;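 further: antibody held on sensor chip via immobilized anti-human or anti-mouse Fc antibody, rate constants derived by fitting sensorgrams to a 1:1 binding model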).
T2 construct: also called soluble HLA-A2:NY-ESO-1 peptide complex

Row | Kd | t½ | koff | kon | Binder
98 | 2.77 nM | 65.4 min |  |  | B1
99 | 0.386 nM | 62.8 min |  |  | B2
100 | 0.342 nM | 75.9 min | 0.000152 s⁻¹ | 445000 M⁻¹ s⁻¹ | B3
101 | 2.27 nM | 9 min |  |  | B12
102 | 0.639 nM | 35.5 min |  |  | B6
103 | 0.692 nM | 37.7 min | 0.000307 s⁻¹ | 443000 M⁻¹ s⁻¹ | B7
104 | 0.388 nM | 32.8 min |  |  | B8
105 | 0.387 nM | 31.6 min |  |  | B9
106 | 0.55 nM | 58 min | 0.000199 s⁻¹ | 362000 M⁻¹ s⁻¹ | B10
107 | 1.23 nM | 22.3 min | 0.000517 s⁻¹ | 421000 M⁻¹ s⁻¹ | B11

What follows are binders tested against T2, monomeric HLA-A2:NY-ESO-1(156-165) (V …) (assay: SPR, 37 C, antibody captured, monomeric complex injected).

Row | Kd | t½ | koff | kon | Binder
108 | 0.586 nM | 21.3 min |  |  | B2
109 | 0.378 nM | 45.7 min | 0.000253 s⁻¹ | 669000 M⁻¹ s⁻¹ | B3
110 | 1.94 nM | 7.9 min |  |  | B6
111 | 2.76 nM | 6.3 min | 0.00183 s⁻¹ | 664000 M⁻¹ s⁻¹ | B7
112 | 1 nM | 9.1 min |  |  | B8
113 | 2.09 nM | 9.9 min | 0.00117 s⁻¹ | 561000 M⁻¹ s⁻¹ | B10
